Assay results from the RNAGym collection of RNA variant scans (doi:10.7554/elife.80360).

B1: HDV Ribozyme (parent)
chain: GGCCGGCAUGGUCCCAGCCUCCUCGCUGGCGCCGGCUGGGCAACAUUCCGAGGGGACCGUCCCCUCGGUAAUGGCGAAUGGGACCCA

Variants of: B1
Assay: self-cleavage, relative activity (ratio to wild type); higher = more cleavage; co-transcriptional

Variant | self-cleavage
G40U C63A | 0.793
G39U C44U | 0.211
G40A G81U | 0.342
G40A G81C | 0.29
G40U C44U | 0.143
G40U C44A | 0.107
G40U C86U | 0.688
G40U C86G | 0.562
G40U C86A | 0.682
G40U C58G | 0.598
G40C A78C | 0.147
G40A A77U | 0.523
G40C C61A | 0.256
G39U A56U | 0.819
G39U A56C | 0.701
G40C G67A | 0.23
G40C G67C | 0.439
G39U G80U | 0.119
G39U G80A | 0.151
G39C G82C | 0.0997
G40U C41U | 0.937
G40C U65A | 0.326
G39U A70U | 0.831
G39C G76C | 0.514

Variant | self-cleavage
G39U G55U | 0.677
G39U G55A | 0.831
G40C A43C | 0.123
G40C C58G | 0.264
G40C C58A | 0.151
G40C A56U | 0.381
G39U C62U | 0.918
G39U U65G | 0.583
G39C G80A | 0.0511
G39C G80C | 0.0845
G40U C62U | 0.872
G40U C62A | 0.709
G40C U46G | 0.0831
G40C U46A | 0.0339
G40A A78U | 0.404
G40A A78G | 0.795
G40A C57G | 1.02
G40A C57U | 1.13
G40A G68C | 0.794
G40C C49U | 0.125
G40C C49A | 0.381
G40C C63A | 0.475
G40A C62U | 0.853
G40A C62A | 0.95

Variant | self-cleavage
G39U C85A | 0.609
G39C U60A | 0.481
G39C U60G | 0.185
G39C U60C | 0.415
G40C C66U | 0.249
G39C U72C | 0.155
G39C U72G | 0.128
G39C G81C | 0.089
G39C C66A | 0.361
G39C C66G | 0.185
G39U G68C | 0.532
G40C G81C | 0.115
G40C G81A | 0.0755
G40U C84A | 0.383
G40U C84U | 0.398
G40U C84G | 0.354
G40C A45C | 0.0845
G40U C64G | 0.446
G39C G50U | 0.345
G39C G50C | 0.104
G40A C58A | 0.906
G40A C58U | 1.18
G40C G53A | 0.332
G40C G53U | 0.337

Variant | self-cleavage
G40C G53C | 0.17
G40U C48A | 0.76
G40U C48U | 0.628
G40U C48G | 0.665
G40U C66A | 0.702
G40U C66U | 0.753
G40U C66G | 0.582
G39C G59U | 0.147
G40A A42C | 0.543
G40A A83C | 0.272
G40A A83U | 0.251
G40A A83G | 0.573
G39U G54A | 0.59
G39U G54U | 0.722
G40U G67C | 0.639
G40U G67U | 0.757
G40U C75A | 0.12
G40U C75U | 0.271
G40A G50C | 0.92
G40A G50U | 0.842
G40C C86G | 0.222
G40U A43U | 0.146
G40U A43C | 0.374
G39U U79G | 0.277

Variant | self-cleavage
G39U U79C | 0.155
G39U U79A | 0.148
G39C G55C | 0.31
G40C A71G | 0.162
G40C A71U | 0.228
G40U A78U | 0.191
G40U A78C | 0.132
G40A C85U | 1.1
G40A C85G | 0.807
G39U C57G | 0.786
G40A G82A | 0.358
G40A A45U | 0.563
G40A A45C | 0.671
G39U C66U | 0.724
G39C G52U | 0.253
G39C G52A | 0.218
G40A C84U | 0.377
G40A C84G | 0.594
G39U G50A | 0.681
G39U G50U | 0.627
G40C G73U | 0.233
G40C C62A | 0.237
G40C C62G | 0
G40C G76U | 0.346

Variant | self-cleavage
G40C G54A | 0.398
G40C G54U | 0.205
G39U U72C | 0.0573
G39U U72A | 0.13
G40A G59U | 0.987
G40A G59C | 0.831
G39C U69C | 0.401
G40A G67C | 0.992
G40A G67A | 1.12
G40A G67U | 0.919
G40U A70U | 0.69
G40C G68A | 0.201
G40C G68U | 0.245
G40U G53U | 0.75
G40A C48U | 0.793
G40A C48A | 0.941
G40A C48G | 1.06
G39U U46G | 0.222
G39U U46C | 0.486
G39U U46A | 0.285
G40U C85A | 0.427
G40U C85U | 0.911
G39U C86U | 0.858
G39U C86A | 0.796

Variant | self-cleavage
G40A A56G | 1.11
G40A A56C | 0.878
G40U G73A | 0.463
G40U G73C | 0.166
G40U | 0.717
G40A | 0.962
G40C | 0.299
G39U G59U | 1.02
G39U G59C | 0.671
G39U C58G | 0.506
G39C G54C | 0.253
G39C G54U | 0.222
G40U A71U | 0.459
G40U A71G | 0.46
G40U C49G | 0.888
G39C G68U | 0.246
G39C G68A | 0.241
G39U C84U | 0.492
G40C A51U | 0.157
G39U | 0.727
G40A A43G | 0.623
G39U C63U | 0.915
G40C G59A | 0.179
G40C G59U | 0.326

Variant | self-cleavage
G40A U60A | 1
G40A U60C | 1.11
G40C U72C | 0.174
G40C U72A | 0.124
G40C U60G | 0.271
G40C U60C | 0.332
G40C C64A | 0.138
G40C C64G | 0.242
G39C G73A | 0.0339
G39U C61A | 0.589
G39U C61G | 0.464
G40A G54U | 0.971
G40A U72C | 0.504
G40A U47A | 0.997
G40A U47C | 1.03
G40A U47G | 0.831
G40U G52U | 0.576
G39U G73C | 0.3
G40A C63G | 0.46
G40A C63A | 0.856
G40A C63U | 0.895
G39C C64G | 0.295
G39C C64U | 0.224
G39U G67U | 0.727

Variant | self-cleavage
G39U A42G | 0.249
G40A A71U | 0.796
G40U G68U | 0.858
G40U G68A | 0.722
G40U G68C | 0.443
G39C G67U | 0.277
G39U A45C | 0.196
G39U A45U | 0.325
G39C C63A | 0.259
G39C C63U | 0.369
G39U G52U | 0.66
G39U G52A | 0.772
G40C U47A | 0.0845
G40C U47G | 0.173
G40U G59A | 0.812
G40U G59C | 0.76
G40A G80C | 0.161
G40A G80A | 0.427
G40A G80U | 0.217
G39U A77U | 0.102
G39C U79G | 0.196
G39C U79C | 0.125
G39U A71G | 0.383
G39U A71C | 0.308

Variant | self-cleavage
G40U A56C | 0.639
G40C G82C | 0.188
G40C G82A | 0.233
G40C G82U | 0.0978
G40C C41A | 0.706
G40U A77G | 0.462
G40A U79G | 0.755
G40A U79C | 0.41
G40A U79A | 0.513
G40U C61U | 0.631
G40U C61A | 0.632
G40U C61G | 0.534
G40U A51C | 0.627
G40U A51G | 0.717
G40U A87C | 0.732
G40C U79A | 0.19
G40C U79G | 0.138
G40A C86A | 1.2
G40A G53A | 0.882
G40A G53C | 1.01
G40U G55A | 0.722
G40U G55C | 0.937
G40C U69C | 0.158
G40U G54C | 0.513

Variant | self-cleavage
G40C C75G | 0.166
G40C C75A | 0.0326
G40U G50A | 0.577
G40U G50C | 0.626
G40A C41G | 0.937
G40A C41A | 0.893
G40A G55U | 1.17
G40A G55A | 0.882
G40U G74A | 0.415
G39C U65A | 0.0462
G40C A77U | 0.128
G40U G82A | 0.256
G40U G82C | 0.157
G40U G82U | 0.171
G39C C75A | 0.142
G39C C75G | 0.0831
G39C C75U | 0.0583
G40C G55A | 0.121
G40C G55C | 0.347
G40U A45G | 0.688
G40U A45U | 0.361
G40C A87C | 0.245
G40C A87U | 0.325
G39U U60G | 0.502

Variant | self-cleavage
G39C C85U | 0.405
G39C C85G | 0.298
G39C C85A | 0.203
G40U G81A | 0.328
G40C A83G | 0.163
G40A C64G | 0.531
G40A C64A | 0.89
G40U C57A | 0.719
G40U C57G | 0.712
G39U U47A | 0.554
G39U U47G | 0.323
G40A G73A | 0.669
G40A G73C | 0.544
G40U A42C | 0.671
G39U C41U | 0.966
G40C C48A | 0.424
G40C C48G | 0.35
G40A C75U | 0.157
G39C G74C | 0.166
G39C G74U | 0.251
G40A U46A | 0.437
G40U G76U | 0.795
G40U G76C | 0.492
G40U G76A | 0.789

Variant | self-cleavage
G39U A83U | 0.259
G39U A83C | 0.157
G39U G82A | 0.27
G40C G52C | 0.0573
G40C G52A | 0.247
G40C G52U | 0.246
G40C G74U | 0.202
G39C C84G | 0.0462
G39C C84A | 0.19
G40U U46A | 0.364
G39U C64A | 0.649
G39U G53A | 0.789
G39U G53C | 0.831
G39C C86A | 0.261
G40C C85U | 0.0804
G40C C85A | 0.128
G39U A78U | 0.157
G39U A78C | 0.13
G39U A78G | 0.198
G40C G50U | 0.269
G40C G50A | 0.219
G40C G50C | 0.225
G40A G76A | 0.918
G39U A43U | 0.148

Variant | self-cleavage
G39U A51C | 0.849
G39U A51G | 0.818
G40U G80U | 0.171
G40C A70C | 0.208
G40C A70U | 0.191
G40C A70G | 0.0941
G40U U47C | 0.475
G39C U46G | 0.262
G39C U46A | 0.19
G39C U46C | 0.214
G40C C84G | 0.128
G40C C84U | 0.0852
G39C U47G | 0.199
G40A C44G | 0.302
G40A C44U | 0.582
G40A C44A | 0.692
G40A A51U | 0.844
G39U C49G | 0.665
G40C G80C | 0.0608
G40A C66G | 0.655
G40A C66U | 0.892
G40A A87G | 0.959
